Target: mouse FGFR4/β-klotho complex co-expressed in rat L6 myoblast cells (mouse) (UniProt Q03142)
Assay: cell-based or functional assay

mouse FGFR4/β-klotho complex co-expressed in rat L6 myoblast cells (mouse), sequence (Q03142 17-799, chain 1 of 2): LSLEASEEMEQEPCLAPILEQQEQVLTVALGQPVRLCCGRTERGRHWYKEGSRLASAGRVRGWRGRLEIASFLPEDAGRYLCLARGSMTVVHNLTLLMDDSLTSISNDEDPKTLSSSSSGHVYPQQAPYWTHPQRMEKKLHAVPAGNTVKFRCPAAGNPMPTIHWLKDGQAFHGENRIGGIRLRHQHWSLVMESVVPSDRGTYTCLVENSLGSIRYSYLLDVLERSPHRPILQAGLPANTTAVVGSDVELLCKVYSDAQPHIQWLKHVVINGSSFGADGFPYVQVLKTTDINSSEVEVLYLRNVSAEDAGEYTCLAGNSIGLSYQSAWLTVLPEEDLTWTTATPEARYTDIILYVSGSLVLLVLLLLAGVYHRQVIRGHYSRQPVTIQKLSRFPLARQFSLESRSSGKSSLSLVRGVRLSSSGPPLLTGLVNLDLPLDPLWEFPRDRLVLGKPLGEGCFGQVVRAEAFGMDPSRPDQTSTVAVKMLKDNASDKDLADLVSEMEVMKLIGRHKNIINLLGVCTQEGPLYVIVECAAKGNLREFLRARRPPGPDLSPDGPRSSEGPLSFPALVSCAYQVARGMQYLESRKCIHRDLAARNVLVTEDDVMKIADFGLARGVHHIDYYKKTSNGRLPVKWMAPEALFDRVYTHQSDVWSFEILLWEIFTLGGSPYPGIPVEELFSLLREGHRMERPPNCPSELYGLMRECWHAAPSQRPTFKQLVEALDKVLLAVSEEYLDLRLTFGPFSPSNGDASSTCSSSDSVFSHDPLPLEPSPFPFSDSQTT
mouse FGFR4/β-klotho complex co-expressed in rat L6 myoblast cells (mouse), sequence (Q99N32 whole entry, chain 2 of 2, further chain): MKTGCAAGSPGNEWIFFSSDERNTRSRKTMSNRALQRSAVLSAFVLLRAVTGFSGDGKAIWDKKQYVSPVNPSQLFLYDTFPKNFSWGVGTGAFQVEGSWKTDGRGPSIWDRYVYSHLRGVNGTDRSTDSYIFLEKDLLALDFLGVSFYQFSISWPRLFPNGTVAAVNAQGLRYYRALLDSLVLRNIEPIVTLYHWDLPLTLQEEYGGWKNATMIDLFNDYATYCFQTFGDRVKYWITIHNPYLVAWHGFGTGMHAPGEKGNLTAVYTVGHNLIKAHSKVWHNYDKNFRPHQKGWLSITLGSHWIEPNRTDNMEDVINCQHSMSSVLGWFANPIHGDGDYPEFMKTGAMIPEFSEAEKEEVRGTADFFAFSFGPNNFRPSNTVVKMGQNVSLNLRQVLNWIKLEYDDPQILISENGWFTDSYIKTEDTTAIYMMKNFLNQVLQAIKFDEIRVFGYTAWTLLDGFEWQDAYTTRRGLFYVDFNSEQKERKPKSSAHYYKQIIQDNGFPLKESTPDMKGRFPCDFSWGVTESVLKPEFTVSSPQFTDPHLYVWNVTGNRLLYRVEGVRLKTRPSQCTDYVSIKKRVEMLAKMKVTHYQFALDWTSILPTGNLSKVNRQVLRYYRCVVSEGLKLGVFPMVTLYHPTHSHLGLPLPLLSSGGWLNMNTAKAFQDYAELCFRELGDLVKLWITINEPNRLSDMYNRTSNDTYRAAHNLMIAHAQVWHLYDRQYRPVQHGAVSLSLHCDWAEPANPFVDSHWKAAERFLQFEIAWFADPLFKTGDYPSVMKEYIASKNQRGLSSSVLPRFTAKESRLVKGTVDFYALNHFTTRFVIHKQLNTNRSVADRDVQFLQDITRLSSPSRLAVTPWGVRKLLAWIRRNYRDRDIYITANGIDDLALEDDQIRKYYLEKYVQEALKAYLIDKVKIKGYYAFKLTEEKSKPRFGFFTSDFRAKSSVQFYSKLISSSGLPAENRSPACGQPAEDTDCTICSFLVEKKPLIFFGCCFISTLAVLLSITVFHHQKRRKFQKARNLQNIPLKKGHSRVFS

Substance: FGF19 (human fibroblast growth factor 19, wild type) (from UniProt O95750 25-216) (ligand)
- EC50 (pM), ELK1 luciferase reporter in L6 cells transfected with mouse FGFR4 and β-klotho: 52.5 pM
- Emax (fold potentiation), ELK1 luciferase reporter in L6 cells transfected with mouse FGFR4 and β-klotho (fold potentiation): 1.82

From patent US20200390859A1
